Reference: IntAct's records for PubMed 26711270

B1: Protein ecdysoneless homolog (Homo sapiens), O95905 (parent)
chain: MEETMKLATMEDTVEYCLFLIPDESRDSDKHKEILQKYIERIITRFAPMLVPYIWQNQPFNLKYKPGKGGVPAHMFGVTKFGDNIEDEWFIVYVIKQITKEFPELVARIEDNDGEFLLIEAADFLPKWLDPENSTNRVFFCHGELCIIPAPRKSGAESWLPTTPPTIPQALNIITAHSEKILASESIRAAVNRRIRGYPEKIQASLHRAHCFLPAGIVAVLKQRPRLVAAAVQAFYLRDPIDLRACRVFKTFLPETRIMTSVTFTKCLYAQLVQQRFVPDRRSGYRLPPPSDPQYRAHELGMKLAHGFEILCSKCSPHFSDCKKSLVTASPLWASFLESLKKNDYFKGLIEGSAQYRERLEMAENYFQLSVDWPESSLAMSPGEEILTLLQTIPFDIEDLKKEAANLPPEDDDQWLDLSPDQLDQLLQEAVGKKESESVSKEEKEQNYDLTEVSESMKAFISKVSTHKGAELPREPSEAPITFDADSFLNYFDKILGPRPNESDSDDLDDEDFECLDSDDDLDFETHEPGEEASLKGTLDNLKSYMAQMDQELAHTCISKSFTTRNQVEPVSQTTDNNSDEEDSGTGESVMAPVDVDLNLVSNILESYSSQAGLAGPASNLLQSMGVQLPDNTDHRPTSKPTKN

Variants of: B1
Settings: with pihd1_human PIH1D1, Q9NWS0
Chain of pihd1_human PIH1D1, Q9NWS0 (Q9NWS0 whole entry): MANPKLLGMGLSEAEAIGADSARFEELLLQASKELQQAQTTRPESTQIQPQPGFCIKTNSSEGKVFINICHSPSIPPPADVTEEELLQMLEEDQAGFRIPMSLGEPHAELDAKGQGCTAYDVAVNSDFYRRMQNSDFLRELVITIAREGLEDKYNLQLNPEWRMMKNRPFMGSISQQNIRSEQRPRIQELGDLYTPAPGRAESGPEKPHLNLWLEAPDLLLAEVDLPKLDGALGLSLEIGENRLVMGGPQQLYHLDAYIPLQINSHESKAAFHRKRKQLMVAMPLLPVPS

effect of a mutation on the interaction	Variant
disrupting interaction	S503D;S505D;S518D;S572D;S579D;S584D
disrupting interaction	S503A;S505A;S518A;S572A;S579A;S584A
disrupting interaction	S503A;S505A;S518A
